Kd data for 5 substances are collected here from article PMC7963221.

Targets include GD-Pangolin RBD; RaTG13 RBD; SHC014 RBD; Rs4231 RBD; Frankfurt 1 RBD; WIV1 RBD; CS24 RBD; A021 RBD; LYRa11 RBD; Civet 007-2004 RBD.
Common to all, as to experiment: FACS
For orientation: In flow cytometry, cells or beads pass a laser one at a time.

What is called Kd is the equilibrium constant for the complex coming apart. Consider CB6/LY-CoV16, for which the Kd came to 2.15 nM in the assay with GD-Pangolin RBD and 3.6 nM in the assay with RaTG13 RBD.
Take LY-CoV555: in the assay with GD-Pangolin RBD, the dissociation constant Kd turned out to be 1.3 nM. This lies in the single-digit nanomolar range.
In the case of REGN10933, in the assay with GD-Pangolin RBD, the Kd was 0.64 nM. This Kd is about 2-fold lower than that of the substance before.
REGN10987 yielded a Kd with GD-Pangolin RBD of 1.44 nM.
With S309, the equilibrium dissociation constant (Kd) worked out at 3.78 nM in the assay with SHC014 RBD; 4.53 nM in the assay with GD-Pangolin RBD; 3.77 nM with Rs4231 RBD; 3.5 nM in the assay with Frankfurt 1 RBD; 2.88 nM in the assay with RaTG13 RBD; 3.89 nM with WIV1 RBD. The Kd with CS24 RBD came to 2.52 nM; with A021 RBD it was 4.14 nM; in the assay with LYRa11 RBD, 4.53 nM; with Civet 007-2004 RBD, 3.75 nM.
